Tests used:
[1] = molecular target: T1, Human CD3ε stalk-Fc(knob)-Avi/CD3δ stalk-Fc(hole) (human); assay: SPR, biotinylated human CD3ε/δ on SA chip, monovalent IgG; response normalised to anti-huIgG capture and referenced to the unstressed sample; after 2 weeks at pH 6.0/40 °C
T1 construct: Heterodimeric Fc fusion; also called human CD3ε/δ; Human CD3 epsilon stalk-Fc(knob)-Avi
Procedure: (§1) All SPR experiments were performed on a Biacore T200 instrument (GE Healthcare) at 25° C. with HBS-P+ (10 mM HEPES, 150 mM NaCl pH 7.4, 0.05% Surfactant P20) as running and dilution buffer. Biotinylated human CD3ε/δ (see Example 3, SEQ ID NOs 41 and 42) as well as biotinylated anti-huIgG (Capture Select, Thermo Scientific, #7103262100) were immobilized on a Series S Sensor Chip SA (GE Healthcare, #29104992), resulting in surface densities of at least 1000 resonance units (RU). Anti-CD3 antibodies with a concentration of 2 μg/ml were injected for 30 s at a flow rate of 5 μl/min, and dissociation was monitored for 120 s. The surface was regenerated by injecting 10 mM glycine pH 1.5 for 60 s. Bulk refractive index differences were corrected by subtracting blank injections and by subtracting the response obtained from a blank control flow cell. For evaluation, the binding response 5 seconds after injection end was taken. To normalize the binding signal, the CD3 binding was divided by the anti-huIgG response (the signal (RU) obtained upon capture of the CD3 antibody on the immobilized anti-huIgG antibody). The relative binding activity was calculated by referencing each temperature stressed sample to the corresponding, non-stressed sample.

[2] = molecular target: T1, Human CD3ε stalk-Fc(knob)-Avi/CD3δ …; assay: SPR, biotinylated human CD3ε/δ on SA chip, monovalent IgG; response normalised to anti-huIgG capture and referenced to the unstressed sample; after 2 weeks at pH 7.4/37 °C
Procedure: as §1

[3] = molecular target: T1, Human CD3ε stalk-Fc(knob)-Avi/CD3δ …; assay: SPR, Biacore T200, 25 °C; monovalent IgG captured by anti-PG antibody on C1 chip, CD3ε/δ-Fc as analyte; triplicates; footnote: values may not be fully reliable, bad fit quality
Procedure: (§2) Kinetic constants were derived using the Biacore T200 Evaluation Software (GE Healthcare Life Sciences), to fit rate equations for 1:1 Langmuir binding by numerical integration. The half-life (t_{1/2}) of the interaction was calculated using the formula t_{1/2}=ln 2/koff.
(§3) To analyze the interaction to CD3, IgG molecules were captured for 240 s at 50 nM with a flow rate of 5 μl/min. Human and cynomolgus CD3ε stalk-Fc(knob)-Avi/CD3δ-stalk-Fc(hole) were passed at a concentration of 0.061-250 nM with a flow rate of 30 μl/min through the flow cells for 300 s. The dissociation was monitored for 800 s.

[4] = molecular target: T2, Cynomolgus CD3ε stalk-Fc(knob)-Avi/CD3δ stalk-Fc(hole) (cynomolgus); assay: as above
T2 construct: Heterodimeric Fc fusion; also called cynomolgus CD3ε/δ
Procedure: as §2, §3

[5] = molecular target: T1, Human CD3ε stalk-Fc(knob)-Avi/CD3δ …; assay: SPR, Biacore T200, 25 °C; monovalent IgG captured by anti-PG antibody on C1 chip, CD3ε/δ-Fc as analyte; 1:1 Langmuir fit; triplicates; footnote: values may not be fully reliable, bad fit quality
Procedure: as §2, §3

[6] = molecular target: T2, Cynomolgus CD3ε stalk-Fc(knob)-Avi/CD3δ …; assay: as above
Procedure: as §2, §3

T2 sequence (chain, as listed by the source mutant limits assumed, chain 1 of 2): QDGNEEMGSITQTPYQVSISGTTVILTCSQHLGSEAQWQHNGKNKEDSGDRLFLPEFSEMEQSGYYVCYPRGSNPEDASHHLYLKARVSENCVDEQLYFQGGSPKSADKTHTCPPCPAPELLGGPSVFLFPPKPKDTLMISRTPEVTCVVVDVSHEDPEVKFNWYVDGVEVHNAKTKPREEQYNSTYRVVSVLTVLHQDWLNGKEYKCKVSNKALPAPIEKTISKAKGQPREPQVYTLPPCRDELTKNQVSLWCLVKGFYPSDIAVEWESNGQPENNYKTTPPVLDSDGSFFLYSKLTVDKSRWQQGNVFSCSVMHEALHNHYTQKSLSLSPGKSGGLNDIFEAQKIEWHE
T2 sequence (chain, as listed by the source mutant limits assumed, chain 2 of 2): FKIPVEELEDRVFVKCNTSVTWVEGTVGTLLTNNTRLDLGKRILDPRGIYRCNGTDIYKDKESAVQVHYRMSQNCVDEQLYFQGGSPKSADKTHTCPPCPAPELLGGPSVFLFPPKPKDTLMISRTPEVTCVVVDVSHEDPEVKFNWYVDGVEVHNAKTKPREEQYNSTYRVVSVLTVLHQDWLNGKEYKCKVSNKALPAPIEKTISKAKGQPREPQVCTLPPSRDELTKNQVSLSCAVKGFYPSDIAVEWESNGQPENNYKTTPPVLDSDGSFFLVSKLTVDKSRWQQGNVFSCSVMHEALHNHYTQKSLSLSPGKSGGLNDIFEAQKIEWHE

binding activity [%] [1]: 101% | binding activity [%] [2]: 98% | t1/2 [3]: 1.36 min | t1/2 [4]: 1.43 min | Kd [5]: 1.36 nM | koff [5]: 0.00852 s⁻¹ | kon [5]: 6.28e+06 M⁻¹ s⁻¹ | Kd [6]: 0.439 nM | koff [6]: 0.00809 s⁻¹ | kon [6]: 1.85e+07 M⁻¹ s⁻¹
B1: Anti-CD3 antibody clone P004.042 in monovalent human IgG1 format (antibody, V domains shown)
VH: EVQLLESGGGLVQPGGSLRLSCAASGFQFDNYAMNWVRQAPGKGLEWVSRIRTKYNEYATYYADSVKGRFTISRDDSKNTLYLQMNSLRAEDTAVYYCVRASNFPQSYVSYFGYWGQGTLVTVSS
VL: QAVVTQEPSLTVSPGGTVTLTCGSSTGAVTTSNYANWVQEKPGQAFRGLIGGTNKRAPGTPARFSGSLLGGKAALTLSGAQPEDEAEYYCALWYSNLWVFGGGTKLTVL
notes: Monovalent human IgG1 with crossed VH and VL domains; knob-into-hole; P329G L234A L235A; also called P004.042 (monovalent IgG)

Source: patent US20230287145A1 (Hoffmann-La Roche, published 2023)
